In paper PMC5868259:

Biological target: PKA catalytic subunit (PKAc), recombinant (UniProt P05132)
Assay: fluorescence polarisation; LiReC competition assay, R-subunit inhibition response without cAMP: 10.0 nM PKAc, 1 nM-1 μM bRIα (monomer), 1.67 nM [5/6-FAM]-IP20; 50 mM MOPS pH 7.0, 35 mM NaCl, 10 mM MgCl2, 1 mM ATP, 2 mM DTT, 0.005% Triton X-100

Row | Substance | IC50 [nM] | Kd [nM]
1 | recombinant bovine PKA regulatory subunit RIα (bRIα), S101A mutant (from UniProt P00514 1-380) (natural protein) | 5.05 | < 10
2 | recombinant bovine PKA regulatory subunit RIα (bRIα), S101E phosphomimetic mutant (from UniProt P00514 1-380) (natural protein) | 212 | –
3 | recombinant bovine PKA regulatory subunit RIα (bRIα), wildtype (from UniProt P00514 1-380) (natural protein) | 4.5 | < 10
